Data as given in US20030073236A1 (published 2003).

Tests used:
[1] = target: T1, SV40 Large T Antigen (T-Ag) (SV40, UniProt P03070 1-708); test: co-immunoprecipitation from metabolically labeled AT-2 cardiomyocytes
T1 construct: also called SV40 T-Ag; recombinant SV40 T-Ag

[2] = target: T1, SV40 Large T Antigen (T-Ag); test: immune precipitation / Western blot, NIH-3T3 cells co-transfected with CMV-p193myc and CMV-T-Ag

Binder | binding result [1] | binding result [2]
p193 (mouse p193, full length) (other, 35S-methionine labelled in the immune precipitation experiments, also called in vitro translated p193) MVGELRYREFRVPLGPGLHAYPDELIRQRVGHNGHPEYQIRWLILRRGDDGDRDSTVDCKAEHILLWMSDDEIYANCHKMLGENGQVIAPSRESTEAGALDKSVLGEMETDVKSLIQRALRQLEECVGTVPPAPLLHTVHVLSAYASIEPLTGIFKDRRVVNLLMHMLSSPDYQIRWSAGRMIQALSSHDAGTRTQILLSLSQQEAIEKHLDFDSRCALLALFAQATLTEHPMSFEGVQLPQVPGRLLFSLVKRYLHVTFLLDRLNGDAGDQGAQNNFSPEELNVGRGRLELEFSMAMGTLISELVQAMRWDGASSRPESSSSSTFQPRPAQFRPYTQRFRRSRRFRPRASFASFNTYALYVRDTLRPGMRVRMLENYEEIAAGDEGQFRQSNDGVPPAQVLWDSTGHTYWVHWHMLEILGFEEDIEDVIDIEELQELGANGALSIVPPSQRWKPITQLFAEPYVVPEEEDREESENLTQAEWWELLFFIRQLSEAERLHIVDLLQDHLEEERVLDYDMLPELTVPVDLAQDLLLSLPQQLEDSALRDLFSCSVYRKYGPEVLVGHLSYPFVPGAQPNLFGANEESEAKDPPLQSASPALQRLVESLGPEGEVLVELEQALGSEAPQETEVKSCLLQLQEQPQPFLALMRSLDTSASNKTLHLTVLRILMQLVNFPEALLLPWHEAMDACVTCLRSPNTDREVLQELIFFLHRLTTTSRDYAVILNQHGARDAISKVLEKHRGKLELAQELRDMVSKCEKHAHLYRKLTTNILGGCIQMVLGQIEDHRRTHRPIQIPFFDVFLRYLCQGSSEEMKKNRYWEKVEVSSNPQRASRLTDRNPKTYWESSGRAGSHFITLHMRPGVIIRQLTLLVAGEDSSYMPAWVVVCGGNSIKSVNKELNTVNVMPSASRVTLLENLTRFWPIIQIRIKRCQQGGINTRIRGLEVLGPKPTFWPVFREQLCRHTRLFYMVRAQAWSQDIAEDRRSLLHLSSRLNGALRHEQNFAERFLPDMEAAQALSKTCWEALVSPLVQNITSPDEDSTSSLGWLLDQYLGCREAAYNPQSRAAAFSSRVRRLTHLLVHVEPREAAPPVVAIPRSKGRNRIHDWSYLITRGLPSSIMKNLTRCWRSVVEEQMNKFLSASWKDDDFVPRYCERYYVLQKSSSELFGPRAAFLLAMRNGCADAVRRLPFLRAAHVKQQFARHIDQRIQGSRMGGARGMEMLAQLQRCLESVLIFSPLEIATTFEHYYQHYMADRLLSVGSSWLEGAVLEQIGPCFPSRLPQQMLQSLNVSEELQRQFHVYQLQQLDQELLKLEDTEKKIQVAHEDSGREDKSKKEEAIGEAAAVAMAEEEDQGKKEEGEEEGEGEDEEEERYYKGTMPEVCVLVVTPRFWPVASVCQMLNPATCLPAYLRGTINHYTNFYSKSQSRSSLEKEPQRRLQWTWQGRAEVQFGGQILHVSTVQMWLLLHLNNQKEVSVESLQAISELPPDVLHRAIGPLTSSRGPLDLQEQKNVPGGVLKIRDDSEEPRPRRGNVWLIPPQTYLQAEAEEGRNMEKRRNLLNCLVVRILKAHGDEGLHVDRLVYLVLEAWEKGPCPARGLVSSLGRGATCRSSDVLSCILHLLVKGTLRRHDDRPQVLYYAVPVTVMEPHMESLNPGSAGPNPPLTFHTLQIRSRGVPYASCTDNHTFSTFR | binds | –
p193myc (p193 protein harboring a C-terminal myc epitope tag, from CMV-p193myc) (other, not shown: small tags and cut ends, Expressed in NIH-3T3 cells co-transfected with CMV-T-Ag; also called CMV-p193myc product) MVGELRYREFRVPLGPGLHAYPDELIRQRVGHNGHPEYQIRWLILRRGDDGDRDSTVDCKAEHILLWMSDDEIYANCHKMLGENGQVIAPSRESTEAGALDKSVLGEMETDVKSLIQRALRQLEECVGTVPPAPLLHTVHVLSAYASIEPLTGIFKDRRVVNLLMHMLSSPDYQIRWSAGRMIQALSSHDAGTRTQILLSLSQQEAIEKHLDFDSRCALLALFAQATLTEHPMSFEGVQLPQVPGRLLFSLVKRYLHVTFLLDRLNGDAGDQGAQNNFSPEELNVGRGRLELEFSMAMGTLISELVQAMRWDGASSRPESSSSSTFQPRPAQFRPYTQRFRRSRRFRPRASFASFNTYALYVRDTLRPGMRVRMLENYEEIAAGDEGQFRQSNDGVPPAQVLWDSTGHTYWVHWHMLEILGFEEDIEDVIDIEELQELGANGALSIVPPSQRWKPITQLFAEPYVVPEEEDREESENLTQAEWWELLFFIRQLSEAERLHIVDLLQDHLEEERVLDYDMLPELTVPVDLAQDLLLSLPQQLEDSALRDLFSCSVYRKYGPEVLVGHLSYPFVPGAQPNLFGANEESEAKDPPLQSASPALQRLVESLGPEGEVLVELEQALGSEAPQETEVKSCLLQLQEQPQPFLALMRSLDTSASNKTLHLTVLRILMQLVNFPEALLLPWHEAMDACVTCLRSPNTDREVLQELIFFLHRLTTTSRDYAVILNQHGARDAISKVLEKHRGKLELAQELRDMVSKCEKHAHLYRKLTTNILGGCIQMVLGQIEDHRRTHRPIQIPFFDVFLRYLCQGSSEEMKKNRYWEKVEVSSNPQRASRLTDRNPKTYWESSGRAGSHFITLHMRPGVIIRQLTLLVAGEDSSYMPAWVVVCGGNSIKSVNKELNTVNVMPSASRVTLLENLTRFWPIIQIRIKRCQQGGINTRIRGLEVLGPKPTFWPVFREQLCRHTRLFYMVRAQAWSQDIAEDRRSLLHLSSRLNGALRHEQNFAERFLPDMEAAQALSKTCWEALVSPLVQNITSPDEDSTSSLGWLLDQYLGCREAAYNPQSRAAAFSSRVRRLTHLLVHVEPREAAPPVVAIPRSKGRNRIHDWSYLITRGLPSSIMKNLTRCWRSVVEEQMNKFLSASWKDDDFVPRYCERYYVLQKSSSELFGPRAAFLLAMRNGCADAVRRLPFLRAAHVKQQFARHIDQRIQGSRMGGARGMEMLAQLQRCLESVLIFSPLEIATTFEHYYQHYMADRLLSVGSSWLEGAVLEQIGPCFPSRLPQQMLQSLNVSEELQRQFHVYQLQQLDQELLKLEDTEKKIQVAHEDSGREDKSKKEEAIGEAAAVAMAEEEDQGKKEEGEEEGEGEDEEEERYYKGTMPEVCVLVVTPRFWPVASVCQMLNPATCLPAYLRGTINHYTNFYSKSQSRSSLEKEPQRRLQWTWQGRAEVQFGGQILHVSTVQMWLLLHLNNQKEVSVESLQAISELPPDVLHRAIGPLTSSRGPLDLQEQKNVPGGVLKIRDDSEEPRPRRGNVWLIPPQTYLQAEAEEGRNMEKRRNLLNCLVVRILKAHGDEGLHVDRLVYLVLEAWEKGPCPARGLVSSLGRGATCRSSDVLSCILHLLVKGTLRRHDDRPQVLYYAVPVTVMEPHMESLNPGSAGPNPPLTFHTLQIRSRGVPYASCTDNHTFSTFR | – | binds
